Assay results as given in PMC4552821 (2015).
Read-outs that look alike come from different tables or passages of the source.

How the values were obtained:
[1] = biological target: T1, kerateine (reduced hair keratin extract) (Homo sapiens, UniProt Q15323); experiment: SPR
[2] = biological target: T1, kerateine (reduced hair keratin extract); experiment: SPR; remark: listed apart in the source

B1: BMP-2 (protein)
chain: QAKHKQRKRLKSSCKRHPLYVDFSDVGWNDWIVAPPGYHAFYCHGECPFPLADHLNSTNHAIVQTLVNSVNSKIPKACCVPTELSAISMLYLDENEKVVLKNYQDMVVEGCGCR
**Q.** B1 was tested. Which Kd [1] did it give?
**A.** 32 µM

**Q.** And the Kd [2]?
**A.** 0.11 µM
